From patent US20200270339A1 (CEPHALON, published 2020)
Positions count from the first letter of the chain named. “And” between values parts separate entries of the source, which are not always exact repeats. Equal entries are not always repeated.

B1: VL_R054Y (antibody, V domains shown)
VH: QVQLQESGPGLVKPSGTLSLTCAVSGGSISSSNWWSWVRQPPGKGLEWIGEIYHSGNTNYNPSLKSRVTISVDKSKNQFSLKLISVTAADTAVYYCAREGIGWPSFDYWGQGTLVTVSS
VL: SSELTQDPAASVALGQTVRITCQGDTLRNYYASWYQQKPGQAPILVIYGKNNYPSGIPDRFSGSSSGNTASLTITGAQAEDEADYYCNSRDSSGKNLVFGGGTKLTVL
notes: Antibody 4 with one substitution; also called ANTIBODY 35
B2: VL_R054L (antibody, V domains shown)
VH: B1 VH
VL: B1 VL with Y53L
notes: Antibody 4 with one substitution; also called ANTIBODY 33
B3: VL_R054Q (antibody, V domains shown)
VH: B1 VH
VL: B1 VL with Y53Q
notes: Antibody 4 with one substitution; also called ANTIBODY 34
B4: Antibody 70b (antibody, human IgG1, lambda)
heavy: QVQLQESGPGLVKPSGTLSLTCAVSGGSISSSNWWSWVRQPPGKGLEWIGEIYHYGYTNYNPSLKSRVTISVDKSKNQFSLKLSSVTAADTAVYYCAREGIGWPSFDYWGQGTLVTVSSASTKGPSVFPLAPSSKSTSGGTAALGCLVKDYFPEPVTVSWNSGALTSGVHTFPAVLQSSGLYSLSSVVTVPSSSLGTQTYICNVNHKPSNTKVDKKVEPKSCDKTHTCPPCPAPELLGGPSVFLFPPKPKDTLYITREPEVTCVVVDVSHEDPEVKFNWYVDGVEVHNAKTKPREEQYNSTYRVVSVLTVLHQDWLNGKEYKCKVSNKALPAPIEKTISKAKGQPREPQVYTLPPSRDELTKNQVSLTCLVKGFYPSDIAVEWESNGQPENNYKTTPPVLDSDGSFFLYSKLTVDKSRWQQGNVFSCSVMHEALHNHYTQKSLSLSPG
light: SSELTQDPAASVALGQTVRITCQGDTLRSYYASWYQQKPGQAPILVIYGKNNRPSGIPDRFSGSSSGNTASLTITGAQAEDEADYYCNSRDLSGKNLVFGGGTKLTVLGQPKAAPSVTLFPPSSEELQANKATLVCLISDFYPGAVTVAWKADSSPVKAGVETTTPSKQSNNKYAASSYLSLTPEQWKSHRSYSCQVTHEGSTVEKTVAPTECS
B5: Antibody 70e (antibody, human IgG4 S228P, lambda)
heavy: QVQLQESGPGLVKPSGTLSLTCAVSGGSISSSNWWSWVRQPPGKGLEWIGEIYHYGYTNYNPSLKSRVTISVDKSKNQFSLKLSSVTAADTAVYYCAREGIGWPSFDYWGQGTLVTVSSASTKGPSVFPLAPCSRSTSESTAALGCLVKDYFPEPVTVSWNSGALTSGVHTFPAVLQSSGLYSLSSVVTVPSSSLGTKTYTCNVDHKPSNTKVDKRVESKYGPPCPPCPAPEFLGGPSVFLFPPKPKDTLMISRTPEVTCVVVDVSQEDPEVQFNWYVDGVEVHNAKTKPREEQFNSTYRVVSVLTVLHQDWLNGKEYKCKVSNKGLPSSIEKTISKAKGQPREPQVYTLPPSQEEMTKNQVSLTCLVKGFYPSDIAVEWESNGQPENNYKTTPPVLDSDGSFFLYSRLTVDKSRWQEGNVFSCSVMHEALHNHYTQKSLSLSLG
light: B4 light
B6: Antibody 63 (antibody, V domains shown)
VH: B1 VH with S55Y, N57Y, I84S
VL: B1 VL with Y53R
B7: Antibody 65 (antibody, V domains shown)
VH: B1 VH with S55Y, N57Y, I84S
VL: B1 VL with Y53R, D91E
B8: Antibody 78 (antibody, V domains shown)
VH: B1 VH with S55Y, N57Y
VL: B1 VL with N29S, Y53R, D91E
B9: Antibody 68 (antibody, V domains shown)
VH: B1 VH with S55Y, N57Y, I84S
VL: SSELTQDPAASVALGQTVRITCQGDTLRNYYASWYQQKPGQAPILVIYGKNNRPSGIPDRFSGSSSGNTASLTITGAQAEDEADYYCNSRDFSGKNLVFGGGTKLTVLG
B10: Antibody 80 (antibody, V domains shown)
VH: B1 VH with S55Y, N57Y
VL: B1 VL with N29S, Y53R, S92E
B11: Antibody 79 (antibody, V domains shown)
VH: B1 VH with S55Y, N57Y
VL: B1 VL with N29S, Y53R, S92L
B12: Antibody 75 (antibody, V domains shown)
VH: B1 VH with S55Y, N57Y
VL: B1 VL with Y53R, S92L
B13: Antibody 64 (antibody, V domains shown)
VH: B1 VH with S55Y, N57Y, I84S
VL: B9 VL with N29S, F92S
B14: Antibody 66 (antibody, V domains shown)
VH: B1 VH with S55Y, N57Y, I84S
VL: B9 VL with F92L
B15: Antibody 73 (antibody, V domains shown)
VH: B1 VH with S55Y, N57Y
VL: B1 VL with N29S, Y53R
B16: Antibody 76 (antibody, V domains shown)
VH: B1 VH with S55Y, N57Y
VL: B1 VL with Y53R, S92E
B17: Antibody 77 (antibody, V domains shown)
VH: B1 VH with S55Y, N57Y
VL: B1 VL with Y53R, S92F
B18: Antibody 67 (antibody, V domains shown)
VH: B1 VH with S55Y, N57Y, I84S
VL: B1 VL with Y53R, S92E
B19: Antibody 71 (antibody, V domains shown)
VH: B1 VH with S55Y, N57Y, I84S
VL: B1 VL with N29S, Y53R, S92E
B20: Antibody 74 (antibody, V domains shown)
VH: B1 VH with S55Y, N57Y
VL: B1 VL with Y53R, D91E
B21: Antibody 72 (antibody, V domains shown)
VH: B1 VH with S55Y, N57Y, I84S
VL: B1 VL with N29S, Y53R, S92F
B22: Antibody 81 (antibody, V domains shown)
VH: B1 VH with S55Y, N57Y
VL: B1 VL with N29S, Y53R, S92F
B23: Antibody 69 (antibody, V domains shown)
VH: B1 VH with S55Y, N57Y, I84S
VL: B1 VL with N29S, Y53R, D91E
B24: VL_K051A (antibody, V domains shown)
VH: B1 VH
VL: B1 VL with K50A, Y53R
notes: Antibody 4 with one substitution; also called ANTIBODY 30
B25: VL_K051L (antibody, V domains shown)
VH: B1 VH
VL: B1 VL with K50L, Y53R
notes: Antibody 4 with one substitution; also called ANTIBODY 32

Each binder was assayed against T1, human IL-15 complexed with the IL-15 Receptor-alpha (human, UniProt P40933 49-162) (assay: SPR).
T1 construct: Co-expressed in HEK293F from plasmids in a 1:1 ratio; also called IL-15/IL-15Rα complex
Target sequence in this assay (P40933 49-162 limits assumed, one chain of several): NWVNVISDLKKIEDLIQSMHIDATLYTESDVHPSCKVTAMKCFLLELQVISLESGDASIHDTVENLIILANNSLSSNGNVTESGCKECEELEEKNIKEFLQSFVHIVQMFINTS
With B1 the Kd was 0.784 nM.
B2 gave a Kd of 0.845 nM.
With B3 the Kd was 0.892 nM.

Target: T1, human IL-15 complexed with the IL-15 …
Assay: SPR
Remark: another data set of the same source
Target sequence in this assay (P40933 49-162 limits assumed, one chain of several): as above
In the case of B4, the Kd is reported as 0.154 nM and 0.157 nM, the koff is reported as 3.92e-05 s⁻¹ and 3.89e-05 s⁻¹ and the kon is reported as 249000 M⁻¹ s⁻¹ and 254000 M⁻¹ s⁻¹.
With B5 the Kd was 0.174 nM and 0.193 nM, the koff was 4.31e-05 s⁻¹ and 4.58e-05 s⁻¹ and the kon was 237000 M⁻¹ s⁻¹ and 247000 M⁻¹ s⁻¹.

These binders were tested against T1, human IL-15 complexed with the IL-15 … (assay: cell-based or functional assay).
Target sequence in this assay (P40933 49-162 limits assumed, chain 1 of 2, one chain of several): as the sequence (P40933 49-162 limits assumed, one chain of several) above
In the case of B6, the “IC 50 (NK-92) in pM” value is reported as 4.21 pM.
For B7, the “IC 50 (NK-92) in pM” value was 42.5 pM.
In the case of B8, the “IC 50 (NK-92) in pM” value is reported as 168 pM.
In the case of B9, the “IC 50 (NK-92) in pM” value is reported as 5.34 pM.
With B10 the “IC 50 (NK-92) in pM” value was 22.8 pM.
With B11 the “IC 50 (NK-92) in pM” value was 12.4 pM.
B12 was tested, and the “IC 50 (NK-92) in pM” value was 3.14 pM.
For B13, the “IC 50 (NK-92) in pM” value was 13.6 pM.
In the case of B14, the “IC 50 (NK-92) in pM” value is reported as 6.04 pM.
In the case of B15, the “IC 50 (NK-92) in pM” value is reported as 11.8 pM.
In the case of B16, the “IC 50 (NK-92) in pM” value is reported as 7.69 pM.
B17 was tested, and the “IC 50 (NK-92) in pM” value was 5.69 pM.
With B18 the “IC 50 (NK-92) in pM” value was 7.69 pM.
With B19 the “IC 50 (NK-92) in pM” value was 26.4 pM.
For B20, the “IC 50 (NK-92) in pM” value was 33.9 pM.
In the case of B21, the “IC 50 (NK-92) in pM” value is reported as 20.9 pM.
In the case of B22, the “IC 50 (NK-92) in pM” value is reported as 17.3 pM.
In the case of B23, the “IC 50 (NK-92) in pM” value is reported as 162 pM.

Target: T1, human IL-15 complexed with the IL-15 …
Assay: cell-based or functional assay
Remark: another data set of the same source
Target sequence in this assay (P40933 49-162 limits assumed, one chain of several): as above
In the case of B4, the “Max IC50 (pM), NK-92 proliferation assay” value is reported as 16.6 pM, the “Mean IC50 (pM), NK-92 proliferation assay” value is reported as 13.3 pM and the “Min IC50 (pM), NK-92 proliferation assay” value is reported as 10.6 pM.
With B5 the “Max IC50 (pM), NK-92 proliferation assay” value was 20.9 pM, the “Mean IC50 (pM), NK-92 proliferation assay” value was 15.7 pM and the “Min IC50 (pM), NK-92 proliferation assay” value was 11.7 pM.

Target: T1, human IL-15 complexed with the IL-15 …
Assay: SPR
Remark: another data set of the same source
Target sequence in this assay (P40933 49-162 limits assumed, one chain of several): as above
With B24 the Kd was 0.942 nM.
In the case of B25, the Kd is reported as 0.865 nM.

Target: T2, uncomplexed IL-15 Receptor α (human)
T2 construct: also called IL-15Rα; IL15Rα
T2 chain: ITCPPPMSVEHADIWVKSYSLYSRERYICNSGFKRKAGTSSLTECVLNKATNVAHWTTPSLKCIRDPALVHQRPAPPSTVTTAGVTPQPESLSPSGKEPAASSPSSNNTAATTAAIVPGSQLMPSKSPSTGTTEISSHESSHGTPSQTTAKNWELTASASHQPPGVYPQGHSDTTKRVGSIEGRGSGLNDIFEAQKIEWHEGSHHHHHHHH
Assay: SPR, antibody captured on Protein A chip
B4: no binding (tested: 10 µg/mL).
B5: no binding (tested: 10 µg/mL).

The binders below were run against IL-21 (UniProt Q9HBE4 30-162, limits assumed) (assay: SPR, antibody captured on Protein A chip).
Chain of IL-21 (Q9HBE4 30-162 limits assumed): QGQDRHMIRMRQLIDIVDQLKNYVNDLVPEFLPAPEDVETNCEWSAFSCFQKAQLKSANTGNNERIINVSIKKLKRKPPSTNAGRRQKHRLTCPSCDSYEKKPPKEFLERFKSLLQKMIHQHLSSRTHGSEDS
B4: no binding (tested: 10 µg/mL).
B5: no binding (tested: 10 µg/mL).

Each binder was assayed against T3, IL-7 (UniProt P13232 26-177) (assay: SPR, antibody captured on Protein A chip).
T3 sequence (looked up): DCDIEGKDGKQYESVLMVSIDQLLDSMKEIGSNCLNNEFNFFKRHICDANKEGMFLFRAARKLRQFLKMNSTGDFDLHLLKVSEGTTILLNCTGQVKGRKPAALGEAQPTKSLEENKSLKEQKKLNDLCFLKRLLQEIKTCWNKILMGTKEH
B4: no binding (tested: 10 µg/mL).
B5: no binding (tested: 10 µg/mL).

Each binder was assayed against IL-2 (UniProt P60568 21-153) (assay: SPR, antibody captured on Protein A chip).
Chain of IL-2 (P60568 21-153 limits assumed): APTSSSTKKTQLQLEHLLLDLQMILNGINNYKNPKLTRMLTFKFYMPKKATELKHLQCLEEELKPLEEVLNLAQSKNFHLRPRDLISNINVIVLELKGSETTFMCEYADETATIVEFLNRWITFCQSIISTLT
B4: no binding (tested: 10 µg/mL).
B5: no binding (tested: 10 µg/mL).

What follows are binders tested against T4, IL-4 (UniProt P05112 25-153) (assay: SPR, antibody captured on Protein A chip).
T4 sequence (looked up): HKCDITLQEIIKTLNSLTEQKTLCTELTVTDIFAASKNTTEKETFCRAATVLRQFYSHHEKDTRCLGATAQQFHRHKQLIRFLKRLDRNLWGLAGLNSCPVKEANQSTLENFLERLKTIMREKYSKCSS
B4: no binding (tested: 10 µg/mL).
B5: no binding (tested: 10 µg/mL).

What follows are binders tested against IL-9 (UniProt P15248 19-144) (assay: SPR, antibody captured on Protein A chip).
Chain of IL-9 (P15248 19-144 limits assumed): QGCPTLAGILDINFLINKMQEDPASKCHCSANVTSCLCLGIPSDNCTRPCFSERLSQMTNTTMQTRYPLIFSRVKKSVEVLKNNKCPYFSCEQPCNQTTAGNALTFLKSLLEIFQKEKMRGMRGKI
B4: no binding (tested: 10 µg/mL).
B5: no binding (tested: 10 µg/mL).
